Measurements: US20240307562A1 (ONCOONE RESEARCH AND DEVELOPMENT, published 2024)

Key:
[1] = target: T1, Recombinant human MIF immobilized on ELISA plates (oxMIF) (human, UniProt P14174 2-115); assay: ELISA on immobilized human MIF (oxMIF), protein L-HRP detection; EC50 of 4-parameter fit taken as KD
T1 construct: also called immobilized MIF; oxidized MIF
Method: (§1) Material and Methods: Recombinant human MIF diluted in PBS at 1 μg/ml was immobilized into ELISA plates overnight at 4° C. (transforming MIF to oxMIF according to Thiele et al., 2015). After blocking, serial dilutions of anti-oxMIF antibodies were added to the plates. Finally, bound antibodies were detected using a protein L-HRP conjugate and tetramethylbenzidine (TMB) as substrate. The chromogenic reaction was stopped with 3M H₂SO₄ and OD was measured at 450 nm. Data from different experiments were normalized to the maximal OD of the anti-oxMIF antibody C0008 (=100%) of the respective experiment and EC₅₀ values were determined by 4-parameter fit using GraphPad Prism (and the mean of two experiments is shown).

[2] = target: T1, Recombinant human MIF immobilized on …; assay: ELISA on immobilized human MIF (oxMIF), anti-human IgG (Fc)-HRP detection; EC50 taken as apparent KD
Method: Recombinant human MIF diluted in PBS at 1 μg/ml was immobilized into ELISA plates overnight at 4° C. (transforming MIF to oxMIF according to Thiele et al., 2015). After blocking, serial dilutions of anti-oxMIF antibodies with and without DFO* conjugation (DFO* conjugation is described in Example 19) were added to the plates. Finally, bound antibodies were detected using a Goat anti-human IgG (Fc)-HRP conjugate and tetramethylbenzidine (TMB) as substrate. The chromogenic reaction was stopped with 3M H₂SO₄ and OD was measured at 450 nm. If data from different experiments were combined, the data were normalized to the maximal OD of the anti-oxMIF antibody C0008 (=100%) of the respective experiment and EC₅₀ values were determined by 4-parameter fit using GraphPad Prism (and the mean+/−SEM of two experiments is shown).
Results and conclusion: The binding of the newly designed antibodies towards immobilized MIF (oxMIF) was measured over a broad range of concentrations and the resulting binding curves are illustrated in FIG. 19. The anti-oxMIF antibody C0008 was used as reference for oxMIF binding. […] Additionally, DFO* conjugation of the newly designed Fc-silenced antibodies C0115 and C0118 has not changed their affinity (FIG. 19B).

[3] = target: T1, Recombinant human MIF immobilized on …; assay: ELISA on immobilized human MIF (oxMIF)
Method: as §1
Results and conclusion: The binding of the newly designed antibodies towards immobilized MIF (oxMIF) was measured over a broad range of concentrations and the resulting binding curves are illustrated in FIG. 8. The anti-oxMIF antibody C0008 was used as reference for oxMIF binding.

[4] = target: human FcγRIIIA receptor, V158 (high affinity allotype) (human, UniProt P08637 17-254); assay: cell-based or functional assay
Chain of human FcγRIIIA receptor, V158 (high affinity allotype) (P08637 17-254 F176V): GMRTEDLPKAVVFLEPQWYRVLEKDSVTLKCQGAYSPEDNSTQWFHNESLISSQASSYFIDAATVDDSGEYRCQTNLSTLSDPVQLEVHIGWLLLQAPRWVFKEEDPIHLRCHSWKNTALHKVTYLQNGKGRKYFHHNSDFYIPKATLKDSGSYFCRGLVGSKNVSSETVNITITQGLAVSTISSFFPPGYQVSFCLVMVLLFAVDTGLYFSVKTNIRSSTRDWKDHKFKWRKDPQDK

T1 sequence (P14174 2-115 limits assumed): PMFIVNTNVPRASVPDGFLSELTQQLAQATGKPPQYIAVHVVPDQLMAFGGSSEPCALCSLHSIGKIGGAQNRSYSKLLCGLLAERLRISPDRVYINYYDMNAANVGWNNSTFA

Row | Binder | Kd [1] | Kd [2] | fold reduction in affinity compared to C0076 [3] | EC50 (read off the curve), ADCC reporter luminescence [4]
1 | C0008 (Imalumab control antibody) (antibody, human IgG1, kappa, V domains shown, also called Bax69) VH: EVQLLESGGGLVQPGGSLRLSCAASGFTFSIYSMNWVRQAPGKGLEWVSSIGSSGGTTYYADSVKGRFTISRDNSKNTLYLQMNSLRAEDTAVYYCAGSQWLYGMDVWGQGTTVTVSS VL: DIQMTQSPSSLSASVGDRVTITCRSSQRIMTYLNWYQQKPGKAPKLLIFVASHSQSGVPSRFRGSGSETDFTLTISGLQPEDSATYYCQQSFWTPLTFGGGTKVEIKR | 0.7 nM | 0.19 nM |  | 
2 | C0077 (antibody, human IgG1, kappa, name in Kabat numbering, V domains shown, IgG1, wt Fc) VH: EVQLQESGGGLVQPGGSLRLSCAASGFTFSIYSMNWVRQAPGKGLEWVSSIGSSGGTTYYADSVKGRFTISRDNSKNTLYLQMNSLRAEDTAVYYCAGSQWLYGMDVWGQGTTVTVSS VL: DIQMTQSPSSLSASVGDRVTITCRSSQRIMTYLNWFQQKPGKAPKLLIYVGSHSQSGVPSRFRGSGSETDFTLTISGLQPEDSATYYCQQSFWTPLTFGGGTKVEIKR | 5.2 nM |  | 5 fold | 
3 | C0083 (antibody, human IgG1, kappa, IgG1, wt Fc; also called parent antibody of C0115) heavy: not shown light: DIQMTQSPSSLSASVGDRVTITCRSSQRIMTYLNWYQQKPGKAPKLLIYVGSHSQSGVPSRFRGSGSETDFTLTISGLQPEDSATYYCQQSFFTPLTFGGGTKVEIKRTVAAPSVFIFPPSDEQLKSGTASVVCLLNNFYPREAKVQWKVDNALQSGNSQESVTEQDSKDSTYSLSSTLTLSKADYEKHKVYACEVTHQGLSSPVTKSFNRGEC | 0.5 nM |  |  | ~3 nM
4 | C0073 (antibody, human IgG1, kappa, IgG1, wt Fc) heavy: not shown light: DIQMTQSPSSLSASVGDRVTITCRSSQRIMTYLNWYQQKPGKAPKLLIYVGSHSQSGVPSRFRGSGSETDFTLTISGLQPEDSATYYCQQSFFTPLTFGGGTKVEIKRTVAAPSVFIFPPSDEQLKSGTASVVCLLNNFYPREAKVQWKVDNALQSGNSQESVTEQDSKDSTYSLSSTLTLSKADYEKHKVYACEVTHQGLSSPVTKSFNRGEC | 1 nM |  |  | 
5 | C0115 (antibody, human IgG1, kappa, L234A L235A, IgG1 with Fc silencing L234A/L235A (EU numbering); also called Fc silenced anti-oxMIF antibody C0115) heavy: not shown light: DIQMTQSPSSLSASVGDRVTITCRSSQRIMTYLNWYQQKPGKAPKLLIYVGSHSQSGVPSRFRGSGSETDFTLTISGLQPEDSATYYCQQSFFTPLTFGGGTKVEIKRTVAAPSVFIFPPSDEQLKSGTASVVCLLNNFYPREAKVQWKVDNALQSGNSQESVTEQDSKDSTYSLSSTLTLSKADYEKHKVYACEVTHQGLSSPVTKSFNRGEC |  | 0.28 nM |  | 
6 | C0078 (antibody, human IgG1, kappa, IgG1, wt Fc) heavy: not shown light: DIQMTQSPSSLSASVGDRVTITCRSSQRIMTYLNWYQQKPGKAPKLLIYVGSHSQSGVPSRFRGSGSETDFTLTISGLQPEDSATYYCQQSFFTPLTFGGGTKVEIKRTVAAPSVFIFPPSDEQLKSGTASVVCLLNNFYPREAKVQWKVDNALQSGNSQESVTEQDSKDSTYSLSSTLTLSKADYEKHKVYACEVTHQGLSSPVTKSFNRGEC | 1.6 nM |  |  | 
7 | C0118 (antibody, human IgG1, kappa, L234A L235A, IgG1 with Fc silencing L234A/L235A (EU numbering); also called Fc silenced anti-oxMIF antibody C0118) heavy: not shown light: DIQMTQSPSSLSASVGDRVTITCRSSQRILTYLNWYQQKPGKAPKLLIYVGSHSQSGVPSRFRGSGSETDFTLTISGLQSEDSATYYCQQSFFTPLTFGGGTKVEIKRTVAAPSVFIFPPSDEQLKSGTASVVCLLNNFYPREAKVQWKVDNALQSGNSQESVTEQDSKDSTYSLSSTLTLSKADYEKHKVYACEVTHQGLSSPVTKSFNRGEC |  | 0.26 nM |  | 
8 | C0090 (antibody, human IgG1, kappa, IgG1, wt Fc; also called parent antibody of C0118) heavy: not shown light: DIQMTQSPSSLSASVGDRVTITCRSSQRILTYLNWYQQKPGKAPKLLIYVGSHSQSGVPSRFRGSGSETDFTLTISGLQSEDSATYYCQQSFFTPLTFGGGTKVEIKRTVAAPSVFIFPPSDEQLKSGTASVVCLLNNFYPREAKVQWKVDNALQSGNSQESVTEQDSKDSTYSLSSTLTLSKADYEKHKVYACEVTHQGLSSPVTKSFNRGEC | 0.5 nM |  |  | ~3 nM
9 | C0076 (antibody, human IgG1, kappa, V domains shown, IgG1, wt Fc) VH: EVQLQESGGGLVQPGGSLRLSCAASGFTFSIYSMNWVRQAPGKGLEWVSSIGSSGGTTYYADSVKGRFTISRDNSKNTLYLQMNSLRAEDTAVYYCAGSQWLYGMDVWGQGTTVTVSS VL: DIQMTQSPSSLSASVGDRVTITCRSSQRIMTYLNWYQQKPGKAPKLLIYVGSHSQSGVPSRFRGSGSETDFTLTISGLQPEDSATYYCQQSFWTPLTFGGGTKVEIKR | 1.1 nM |  |  | 
